Sequences and labels used below:
B1: Ubc13/MMS2 (His-UbcH13 with His-MMS2) (complex)
chain 1: MAGLPRRIIKETQRLLAEPVPGIKAEPDESNARYFHVVIAGPQDSPFEGGTFKLELFLPEEYPMAAPKVRFMTKIYHPNVDKLGRICLDILKDKWSPALQIRTVLLSIQALLSAPNPDDPLANDVAEQWKTNEAQAIETARAWTRLYAMNNI
chain 2: not shown
notes: UbcH13 (Ubc13, E2), human; cDNA amplified from a human thymus cDNA library; MMS2, E2 variant that lacks the active cysteine, human; The two chains were expressed and purified separately; also called UbcH13-MMS2; source: E. coli BL21(DE3), each purified (Ni Sepharose 6 Fast Flow)
B2: His-UbcH10 (enzyme, human, UniProt O00762 1-179, looked up)
chain: MASQNRDPAATSVAAARKGAEPSGGAARGPVGKRLQQELMTLMMSGDKGISAFPESDNLFKWVGTIHGAAGTVYEDLRYKLSLEFPSGYPYNAPTVKFLTPCYHPNVDTQGNICLDILKEKWSALYDVRTILLSIQSLLGEPNIDSPLNTHAAELWKNPTAFKKYLQETYSKQVTSQEP
notes: UbcH10 (E2), human; cDNA amplified from a human thymus cDNA library; source: E. coli BL21(DE3), purified (Ni Sepharose 6 Fast Flow)
B3: GST-UbcH5a (enzyme)
chain: not shown
notes: UbcH5a (ubiquitin-conjugating enzyme E2), human; cDNA amplified from a human thymus cDNA library; also called GST-Ubc5a; source: E. coli BL21(DE3), purified (Glutathione Sepharose 4B)
B4: His-UbcH6 (enzyme, human, UniProt P51965 1-193, looked up)
chain: MSDDDSRASTSSSSSSSSNQQTEKETNTPKKKESKVSMSKNSKLLSTSAKRIQKELADITLDPPPNCSAGPKGDNIYEWRSTILGPPGSVYEGGVFFLDITFTPEYPFKPPKVTFRTRIYHCNINSQGVICLDILKDNWSPALTISKVLLSICSLLTDCNPADPLVGSIATQYMTNRAEHDRMARQWTKRYAT
notes: UbcH6 (E2), human; cDNA amplified from a human thymus cDNA library; source: E. coli BL21(DE3), purified (Ni Sepharose 6 Fast Flow)
B5: GST-TdT (terminal deoxynucleotidyltransferase) (natural protein)
chain: MDPLCTASSGPRKKRPRQVGASMASPPHDIKFQNLVLFILEKKMGTTRRNFLMELARRKGFRVENELSDSVTHIVAENNSGSEVLEWLQVQNIRASSQLELLDVSWLIESMGAGKPVEITGKHQLVVRTDYSATPNPGFQKTPPLAVKKISQYACQRKTTLNNYNHIFTDAFEILAENSEFKENEVSYVTFMRAASVLKSLPFTIISMKDTEGIPCLGDKVKCIIEEIIEDGESSEVKAVLNDERYQSFKLFTSVFGVGLKTSEKWFRMGFRSLSKIMSDKTLKFTKMQKAGFLYYEDLVSCVTRAEAEAVGVLVKEAVWAFLPDAFVTMTGGFRRGKKIGHDVDFLITSPGSAEDEEQLLPKVINLWEKKGLLLYYDLVESTFEKFKLPSRQVDTLDHFQKCFLILKLHHQRVDSSKSNQQEGKTWKAIRVDLVMCPYENRAFALLGWTGSRQFERDIRRYATHERKMMLDNHALYDKTKRVFLKAESEEEIFAHLGLDYIEPWERNA
notes: Terminal deoxynucleotidyltransferase (TdT), bovine; cDNA isolated from a bovine thymus cDNA library; wild type; source: E. coli BL21(DE3)pLysS Rosetta2, purified (Glutathione Sepharose 4B)
B6: His-UbcH5a (wild type) (enzyme)
chain: not shown
notes: UbcH5a (ubiquitin-conjugating enzyme E2), human; cDNA amplified from a human thymus cDNA library; also called His-wtUbcH5a; wtUbcH5a; source: E. coli BL21(DE3), purified (Ni Sepharose 6 Fast Flow)

Holding throughout (conditions): both partners purified
The target in the experiment “GST-TdT (terminal …)” is B5. Description: pull-down; GST-TdT coupled to Glutathione Sepharose 4B as bait, His-tagged proteins added for 1 h (coupling at 4°C); binding buffer A: 50 mM Tris-HCl pH 7.4, 150 mM NaCl, 2.5 mM MgCl2, 1% TritonX-100, 10% glycerol, 1 mM DTT; immunoblot with anti-His; Figure 2A with or without His-Ub. On the technique in general: In western blotting, separated proteins are transferred to a membrane and probed.

Another experiment has as its target T1, His-TdT del 2 (150–509) (bovine, UniProt P06526 150-509).
T1 construct: also called C-terminal region of TdT; source: E. coli BL21(DE3)pLysS Rosetta2, purified (Ni Sepharose 6 Fast Flow)
Description: pull-down; GST-UbcH5a coupled to Glutathione Sepharose 4B as bait, His-TdT deletion mutants as prey; binding buffer A: 50 mM Tris-HCl pH 7.4, 150 mM NaCl, 2.5 mM MgCl2, 1% TritonX-100, 10% glycerol, 1 mM DTT; immunoblot with anti-His.

A further experiment deals with T2, His-UbcH5b (human, UniProt P62837 1-147).
T2 construct: UbcH5b (E2), human; cDNA amplified from a human thymus cDNA library; also called UbcH5 isoforms; source: E. coli BL21(DE3), purified (Ni Sepharose 6 Fast Flow)
As to the kind of experiment: pull-down; GST-TdT coupled to Glutathione Sepharose 4B as bait, His-tagged proteins added for 1 h (coupling at 4°C); binding buffer A: 50 mM Tris-HCl pH 7.4, 150 mM NaCl, 2.5 mM MgCl2, 1% TritonX-100, 10% glycerol, 1 mM DTT; immunoblot with anti-His; Figure 2A with or without His-Ub.

Take B1: the binding result with GST-TdT (terminal …) is “binds”.
Same read-out and setting: with B2 the entry was “binds”.
Turning to B3, the binding result in the experiment with His-TdT del 2 (150–509) is “binds”.
Regarding B4, in the experiment with GST-TdT (terminal …), the binding result was “binds”.
In the case of B5, the binding result in the experiment with His-UbcH5b is “binds”.
With B6, the binding result with GST-TdT (terminal …) is on record as “binds”.
